Data taken from patent US20110118131A1 (published 2011).
Residue numbers refer to the chain shown, from its start. Names and notes keep the numbering of the source.

B1: XPA23 heavy chain N104L (Fab, V domains shown)
VH: EVQLLESGGGLVQPGGSLRLSCAASGFTFSKYFMFWVRQAPGKGLEWVSVISPSGGMTRYADSVKGRFTISRDNSKNTLYLQMNSLRAEDTAVYYCARVGYGGLSDYWGQGTLVTVSS
VL: DIQMTQSPSSVSASVGDRLTIICRASQDINRWLAWYQQTPGNAPKLLIHSATSLQSGVPSRFSGSGSGTDFTLTINSLQPEDFATYYCQQADSFPLTFGGGTKVEIK
notes: Fab, periplasmic extract; also called C5A N104L
B2: XPA23 heavy chain N104T (Fab, V domains shown)
VH: B1 VH with L104T
VL: B1 VL
notes: Fab, periplasmic extract; also called C5A N104T
B3: XPA23 heavy chain N104V (Fab, V domains shown)
VH: B1 VH with L104V
VL: B1 VL
notes: Fab, periplasmic extract; also called C5A N104V
B4: XPA23 heavy chain P53A (Fab, V domains shown)
VH: B1 VH with P53A, L104N
VL: B1 VL
notes: Fab, periplasmic extract; also called C5A P53A
B5: XPA23 heavy chain P53G (Fab, V domains shown)
VH: B1 VH with P53G, L104N
VL: B1 VL
notes: Fab, periplasmic extract; also called C5A P53G
B6: XPA23 heavy chain P53I (Fab, V domains shown)
VH: B1 VH with P53I, L104N
VL: B1 VL
notes: Fab, periplasmic extract; also called C5A P53I
B7: XPA23 heavy chain P53L (Fab, V domains shown)
VH: B1 VH with P53L, L104N
VL: B1 VL
notes: Fab, periplasmic extract; also called C5A P53L
B8: XPA23 heavy chain P53V (Fab, V domains shown)
VH: B1 VH with P53V, L104N
VL: B1 VL
notes: Fab, periplasmic extract; also called C5A P53V
B9: XPA23 heavy chain R59G (Fab, V domains shown)
VH: B1 VH with R59G, L104N
VL: B1 VL
notes: Fab, periplasmic extract; also called C5A R59G
B10: XPA23 heavy chain R59L (Fab, V domains shown)
VH: B1 VH with R59L, L104N
VL: B1 VL
notes: Fab, periplasmic extract; also called C5A R59L
B11: XPA23 heavy chain R59P (Fab, V domains shown)
VH: B1 VH with R59P, L104N
VL: B1 VL
notes: Fab, periplasmic extract; also called C5A R59P
B12: XPA23 heavy chain R59T (Fab, V domains shown)
VH: B1 VH with R59T, L104N
VL: B1 VL
notes: Fab, periplasmic extract; also called C5A R59T
B13: XPA23 heavy chain S30A (Fab, V domains shown)
VH: B1 VH with S30A, L104N
VL: B1 VL
notes: Fab, periplasmic extract; also called C5A S30A
B14: XPA23 heavy chain S30G (Fab, V domains shown)
VH: B1 VH with S30G, L104N
VL: B1 VL
notes: Fab, periplasmic extract; also called C5A S30G
B15: XPA23 heavy chain S30I (Fab, V domains shown)
VH: B1 VH with S30I, L104N
VL: B1 VL
notes: Fab, periplasmic extract; also called C5A S30I
B16: XPA23 heavy chain S30L (Fab, V domains shown)
VH: B1 VH with S30L, L104N
VL: B1 VL
notes: Fab, periplasmic extract; also called C5A S30L
B17: XPA23 heavy chain S30T (Fab, V domains shown)
VH: B1 VH with S30T, L104N
VL: B1 VL
notes: Fab, periplasmic extract; also called C5A S30T
B18: XPA23 heavy chain S52A (Fab, V domains shown)
VH: B1 VH with S52A, L104N
VL: B1 VL
notes: Fab, periplasmic extract; also called C5A S52A
B19: XPA23 heavy chain S52G (Fab, V domains shown)
VH: B1 VH with S52G, L104N
VL: B1 VL
notes: Fab, periplasmic extract; also called C5A S52G
B20: XPA23 heavy chain S52P (Fab, V domains shown)
VH: B1 VH with S52P, L104N
VL: B1 VL
notes: Fab, periplasmic extract; also called C5A S52P
B21: XPA23 heavy chain S52T (Fab, V domains shown)
VH: B1 VH with S52T, L104N
VL: B1 VL
notes: Fab, periplasmic extract; also called C5A S52T
B22: XPA23 heavy chain S52V (Fab, V domains shown)
VH: B1 VH with S52V, L104N
VL: B1 VL
notes: Fab, periplasmic extract; also called C5A S52V
B23: XPA23 heavy chain S54A (Fab, V domains shown)
VH: B1 VH with S54A, L104N
VL: B1 VL
notes: Fab, periplasmic extract; also called C5A S54A
B24: XPA23 heavy chain S54G (Fab, V domains shown)
VH: B1 VH with S54G, L104N
VL: B1 VL
notes: Fab, periplasmic extract; also called C5A S54G
B25: XPA23 heavy chain S54I (Fab, V domains shown)
VH: B1 VH with S54I, L104N
VL: B1 VL
notes: Fab, periplasmic extract; also called C5A S54I
B26: XPA23 heavy chain S54L (Fab, V domains shown)
VH: B1 VH with S54L, L104N
VL: B1 VL
notes: Fab, periplasmic extract; also called C5A S54L
B27: XPA23 heavy chain S54P (Fab, V domains shown)
VH: B1 VH with S54P, L104N
VL: B1 VL
notes: Fab, periplasmic extract; also called C5A S54P
B28: XPA23 heavy chain S54T (Fab, V domains shown)
VH: B1 VH with S54T, L104N
VL: B1 VL
notes: Fab, periplasmic extract; also called C5A S54T
B29: XPA23 heavy chain S54V (Fab, V domains shown)
VH: B1 VH with S54V, L104N
VL: B1 VL
notes: Fab, periplasmic extract; also called C5A S54V
B30: XPA23 heavy chain S105A (Fab, V domains shown)
VH: B1 VH with L104N, S105A
VL: B1 VL
notes: Fab, periplasmic extract; also called C5A S105A
B31: XPA23 heavy chain S105G (Fab, V domains shown)
VH: B1 VH with L104N, S105G
VL: B1 VL
notes: Fab, periplasmic extract; also called C5A S105G
B32: XPA23 heavy chain S105I (Fab, V domains shown)
VH: B1 VH with L104N, S105I
VL: B1 VL
notes: Fab, periplasmic extract; also called C5A S105I
B33: XPA23 heavy chain S105P (Fab, V domains shown)
VH: B1 VH with L104N, S105P
VL: B1 VL
notes: Fab, periplasmic extract; also called C5A S105P
B34: XPA23 heavy chain S105T (Fab, V domains shown)
VH: B1 VH with L104N, S105T
VL: B1 VL
notes: Fab, periplasmic extract; also called C5A S105T
B35: XPA23 heavy chain S105V (Fab, V domains shown)
VH: B1 VH with L104N, S105V
VL: B1 VL
notes: Fab, periplasmic extract; also called C5A S105V
B36: XPA23 heavy chain T58A (Fab, V domains shown)
VH: B1 VH with T58A, L104N
VL: B1 VL
notes: Fab, periplasmic extract; also called C5A T58A
B37: XPA23 heavy chain T58G (Fab, V domains shown)
VH: B1 VH with T58G, L104N
VL: B1 VL
notes: Fab, periplasmic extract; also called C5A T58G
B38: XPA23 heavy chain T58I (Fab, V domains shown)
VH: B1 VH with T58I, L104N
VL: B1 VL
notes: Fab, periplasmic extract; also called C5A T58I
B39: XPA23 heavy chain T58L (Fab, V domains shown)
VH: B1 VH with T58L, L104N
VL: B1 VL
notes: Fab, periplasmic extract; also called C5A T58L
B40: XPA23 heavy chain T58P (Fab, V domains shown)
VH: B1 VH with T58P, L104N
VL: B1 VL
notes: Fab, periplasmic extract; also called C5A T58P
B41: XPA23 heavy chain T58V (Fab, V domains shown)
VH: B1 VH with T58V, L104N
VL: B1 VL
notes: Fab, periplasmic extract; also called C5A T58V
B42: XPA23 heavy chain V50A (Fab, V domains shown)
VH: B1 VH with V50A, L104N
VL: B1 VL
notes: Fab, periplasmic extract; also called C5A V50A
B43: XPA23 heavy chain V50G (Fab, V domains shown)
VH: B1 VH with V50G, L104N
VL: B1 VL
notes: Fab, periplasmic extract; also called C5A V50G
B44: XPA23 heavy chain V50I (Fab, V domains shown)
VH: B1 VH with V50I, L104N
VL: B1 VL
notes: Fab, periplasmic extract; also called C5A V50I
B45: XPA23 heavy chain V50L (Fab, V domains shown)
VH: B1 VH with V50L, L104N
VL: B1 VL
notes: Fab, periplasmic extract; also called C5A V50L

Target: T1, IL-1β (UniProt P01584 117-269)
T1 construct: Antigen of XPA23
Test: Biacore, Fab periplasmic extract

Binder	fold difference in affinity against the original [fold]
B1	1.19
B2	0.95
B3	1.27
B4	0.05
B5	0.02
B6	0.08
B7	0.04
B8	1.1
B9	1.04
B10	0.08
B11	0.07
B12	0.76
B13	0.77
B14	0.13
B15	0.08
B16	0.91
B17	0.06
B18	0.05
B19	0.03
B20	0.05
B21	0.04
B22	0.04
B23	1

Binder	fold difference in affinity against the original [fold]
B24	1.43
B25	0.86
B26	0.91
B27	0.06
B28	0.14
B29	1
B30	0.84
B31	0.12
B32	0.07
B33	1.41
B34	0.11
B35	0.08
B36	0.14
B37	0.95
B38	0.95
B39	0.95
B40	1.81
B41	0.99
B42	0.09
B43	0.03
B44	0.1
B45	0.09
